In article PMC8749958 (Science translational medicine, 2021):

Target: T1, recombinant human CD93 protein (R&D Systems) (human, UniProt Q9NPY3 24-580)
T1 sequence (looked up): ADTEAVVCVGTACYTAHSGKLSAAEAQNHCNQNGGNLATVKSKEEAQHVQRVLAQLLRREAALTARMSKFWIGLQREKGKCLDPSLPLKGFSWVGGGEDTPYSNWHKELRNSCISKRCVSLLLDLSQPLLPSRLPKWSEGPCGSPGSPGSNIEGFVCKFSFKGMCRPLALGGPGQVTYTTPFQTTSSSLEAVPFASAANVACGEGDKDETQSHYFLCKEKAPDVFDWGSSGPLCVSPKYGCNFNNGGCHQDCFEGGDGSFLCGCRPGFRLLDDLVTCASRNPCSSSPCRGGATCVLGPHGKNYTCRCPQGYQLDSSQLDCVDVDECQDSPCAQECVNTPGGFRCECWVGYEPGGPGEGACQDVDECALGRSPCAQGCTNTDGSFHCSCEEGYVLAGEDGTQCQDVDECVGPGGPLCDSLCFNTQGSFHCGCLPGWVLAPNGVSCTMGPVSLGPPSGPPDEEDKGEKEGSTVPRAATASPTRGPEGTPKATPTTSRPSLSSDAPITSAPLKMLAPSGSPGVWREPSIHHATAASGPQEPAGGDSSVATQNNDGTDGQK
Test: MST

Kd: 53.1 ± 20.2 nM
B1: IGFBP7 protein (R&D Systems), labelled for microscale thermophoresis (ligand, human, UniProt Q16270 27-282, looked up)
chain: SSSDTCGPCEPASCPPLPPLGCLLGETRDACGCCPMCARGEGEPCGGGGAGRGYCAPGMECVKSRKRRKGKAGAAAGGPGVSGVCVCKSRYPVCGSDGTTYPSGCQLRAASQRAESRGEKAITQVSKGTCEQGPSIVTPPKDIWNVTGAQVYLSCEVIGIPTPVLIWNKVKRGHYGVQRTELLPGDRDNLAIQTRGGPEKHEVTGWVLVSPLSKEDAGEYECHASNSQGQASASAKITVVDALHEIPVKKGEGAEL
modifications: fluorescent dye RED-tris-NTA 2nd Generation (Monolith His-Tag Labeling kit)
